Measurements: patent US20090118178A1 (7TM PHARMA A S, published 2009)
Where no end group is shown, it is not given here.

T1: human Y2 receptor (human, UniProt P49146 1-381)
T1 sequence (looked up): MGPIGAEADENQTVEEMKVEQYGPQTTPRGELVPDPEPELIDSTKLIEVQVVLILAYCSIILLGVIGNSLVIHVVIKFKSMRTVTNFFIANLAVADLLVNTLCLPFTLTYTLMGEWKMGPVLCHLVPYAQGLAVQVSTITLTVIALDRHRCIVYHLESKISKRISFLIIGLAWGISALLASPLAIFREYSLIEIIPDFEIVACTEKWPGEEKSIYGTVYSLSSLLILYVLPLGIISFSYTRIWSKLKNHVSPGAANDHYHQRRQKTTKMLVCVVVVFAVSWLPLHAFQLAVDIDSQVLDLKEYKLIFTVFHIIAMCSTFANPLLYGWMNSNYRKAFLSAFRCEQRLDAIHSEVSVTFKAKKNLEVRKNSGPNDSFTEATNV

T2: human Y1 receptor (human, UniProt P25929 1-384)
T2 sequence (looked up): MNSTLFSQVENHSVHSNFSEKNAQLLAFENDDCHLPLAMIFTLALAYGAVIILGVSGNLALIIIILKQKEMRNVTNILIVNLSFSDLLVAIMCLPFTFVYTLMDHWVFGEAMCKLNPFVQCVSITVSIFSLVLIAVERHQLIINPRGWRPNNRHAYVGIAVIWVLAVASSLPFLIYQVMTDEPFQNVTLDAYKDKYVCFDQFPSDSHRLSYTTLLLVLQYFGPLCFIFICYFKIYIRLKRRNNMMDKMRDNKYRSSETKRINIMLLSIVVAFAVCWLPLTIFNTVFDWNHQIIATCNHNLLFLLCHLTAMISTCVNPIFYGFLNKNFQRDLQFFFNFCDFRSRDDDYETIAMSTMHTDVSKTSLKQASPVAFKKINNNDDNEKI


Experiments:
Assay in all cases: cell-based or functional assay
human Y4 receptor = human Y4 receptor (human, UniProt P50391 1-375)
human Y4 receptor, sequence (P50391 whole entry): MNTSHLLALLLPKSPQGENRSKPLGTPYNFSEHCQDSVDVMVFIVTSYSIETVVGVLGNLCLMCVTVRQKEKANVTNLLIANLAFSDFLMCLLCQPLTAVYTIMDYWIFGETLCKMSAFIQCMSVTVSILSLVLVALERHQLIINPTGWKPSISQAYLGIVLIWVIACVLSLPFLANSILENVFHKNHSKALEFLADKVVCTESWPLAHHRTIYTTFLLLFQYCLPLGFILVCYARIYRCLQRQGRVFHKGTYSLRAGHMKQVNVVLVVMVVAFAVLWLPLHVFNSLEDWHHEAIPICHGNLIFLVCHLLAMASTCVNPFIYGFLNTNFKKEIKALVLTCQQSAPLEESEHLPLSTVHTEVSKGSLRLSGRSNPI

human Y2 receptor = target: T1, human Y2 receptor
human Y1 receptor = target: T2, human Y1 receptor

Row | Binder | EC50, inositol phosphate turnover in transfected COS-7 cells (hY4 potency assay) (human Y4 receptor) | EC50, inositol phosphate turnover in transfected COS-7 cells (hY2 potency assay) (human Y2 receptor) | EC50, inositol phosphate turnover in transfected COS-7 cells (hY1 potency assay) (human Y1 receptor)
1 | PLEPVYPGDNATPEQMAQYAADLRRYINALTRPRY-NH2 [[Ala30]PP2-36] | 1.04 nM | > 1000 nM | > 1000 nM
2 | PLEPVYPGDNATPEQMAQYAADLRRYINTLTRPRY-NH2 [[Thr30]PP2-36] | 1.07 nM | > 1000 nM | > 1000 nM
3 | PLEPVYPGDNATPEQMAQYAADLRRYINNLTRPRY-NH2 [[Asn30]PP2-36] | 3.05 nM | > 1000 nM | > 1000 nM
4 | PLEPVYPGDNATPEQMAQYAADLRRYINQLTRPRY-NH2 [[Gln30]PP2-36] | 0.99 nM | > 1000 nM | > 1000 nM
5 | PLEPVYPGENATPEQLAQYAADLRRYINTLTRPRY-NH2 [[Glu10, Leu17, Thr30]PP2-36] | 1.07 nM | > 1000 nM | > 1000 nM
6 | PLEPVYPGENATPEQMAQYAADLRRYINMLTRPRY-NH2 [[Glu10]PP2-36] | 0.91 nM | > 1000 nM | 564 nM
